The values below come from patent US10023882B1, “Hetero-oligomers of (S)-carbonyl reductases and their applications in catalyzing reduction of polyphenyl ketones” (Jiangnan University, priority 2017, dated 2018).

A short description of data set [1]: Reductive activity assay towards 2,4-dichlorobenzophenone (NADPH oxidation, absorbance at 340 nm). In kind it is biochemical. The note with it: purified enzyme, 0.5 mM NADPH, 1 mM substrate, 30° C. How it is done: (§1) (1) Principle and definition: The enzyme activity for the reduction of prochiral ketones to chiral alcohols by homo-oligomers was determined with purified enzymes by measuring the decrease in absorbance at 340 nm resulting from the oxidation of NADPH. Protein concentration was determined by Beyotime (Shanghai, China) using bovine serum albumin as a standard.
(§2) (2) Enzyme activity assay conditions (250 ul): 0.5 mmol·L^−1 NADPH, 1 mmol·L^−1 substrate (2,4-dichlorobenzophenone, 2-naphthyl ketone, or [(E)-2-[3-[3-[2-(7-chloro-2-quinolinyl)ethenyl]phenyl]-3-oxopropyl]benzoic acid methyl ester (Keto Easter M).). Incubate the mixture at 30° C. for 2 min, then add appropriate amount of enzyme, and finally measure the absorbance at 340 nm wavelength.
(§3) Formula for calculating enzyme activity is: Enzyme activity (U)=EW×V×10^3/(6220×0.15), and formula for calculating relative enzyme activity is: relative enzyme activity (U/mg)=enzyme activity (U)/protein content (mg), wherein EW is the measured change of absorbance at 340 nm in 1 min; V is the reaction volume (mL); the molar absorption coefficient (L mol^−1 cm^−1) is 6220; and the optical length is 0.15 cm.
(§4) One unit of the enzyme activity is defined as the amount of enzyme catalyzing the formation and oxidation of 1 μmol of NAD(P)H per minute under measurement conditions.
(§5) Enzyme activity assay system (250 ul) contained 0.5 mM NADPH, 1 mM substrate (i.e. 2,4-dichlorobenzophenone) and appropriate amount of enzyme. The reaction mixture was incubated at 30° C. for 2 min, the appropriate amount of enzyme was added, and finally the absorption change was scanned at 340 nm wavelength. The calculated relative enzyme activity of SCR/SCR2 and SCR2/SCR3 were 4.55 U/mg and 4.42 U/mg towards 2,4-dichlorobenzophenone, respectively.

Data set [2] is described as follows: Reductive activity assay towards 2-acetonaphthone (NADPH oxidation, absorbance at 340 nm). In kind it is biochemical. Conditions: purified enzyme, 0.5 mM NADPH, 1 mM substrate, 30° C. How it is done: as §1, §2, §3, §4
Enzyme activity assay system (250 ul) contained 0.5 mM NADPH, 1 mM substrate (i.e. 2-acetonaphthone) and appropriate amount of enzyme. The reaction mixture was incubated at 30° C. for 2 min, the appropriate amount of enzyme was added, and finally the absorption change was scanned at 340 nm wavelength. The calculated relative enzyme activity of SCR/SCR2 was 2.43 U/mg towards 2-acetonaphthone.

Data set [3] in a line: Reductive activity assay towards Keto Easter M (NADPH oxidation, absorbance at 340 nm). The class given is biochemical. Conditions: purified enzyme, 0.5 mM NADPH, 1 mM substrate, 30° C. How it is done:
as §1, §2, §3, §4
as §5, with “[(E)-2-[3-[3-[2-(7-chloro-2-quinolinyl)ethenyl]phenyl]-3-oxopropyl]benzoic acid methyl ester (Keto Easter M)” for “2,4-dichlorobenzophenone)”, “0.86” for “4.55”, “1.21” for “4.42”, “[(E)-2-[3-[3-[2-(7-chloro-2-quinolinyl)ethenyl]phenyl]-3-oxopropyl]benzoic acid methyl ester (Keto Easter M),” for “2,4-dichlorobenzophenone,”

Data set [4] addresses T1, His-SCR3, (S)-carbonyl reductase SCR3 of Candida parapsilosis with N-terminal His-tag, expressed from pET28-His-SCR3.
T1 chain: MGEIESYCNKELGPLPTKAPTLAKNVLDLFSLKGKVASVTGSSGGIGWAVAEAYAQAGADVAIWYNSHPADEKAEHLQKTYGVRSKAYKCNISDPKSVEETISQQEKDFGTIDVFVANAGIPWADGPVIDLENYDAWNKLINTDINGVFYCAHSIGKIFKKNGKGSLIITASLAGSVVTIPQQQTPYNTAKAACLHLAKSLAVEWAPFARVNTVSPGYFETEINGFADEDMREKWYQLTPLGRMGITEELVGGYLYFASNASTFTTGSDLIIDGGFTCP

In data set [5] the target is T2, His-SCR2, (S)-carbonyl reductase SCR2 of Candida parapsilosis with N-terminal His-tag, expressed from pET28-His-SCR2.
T2 chain: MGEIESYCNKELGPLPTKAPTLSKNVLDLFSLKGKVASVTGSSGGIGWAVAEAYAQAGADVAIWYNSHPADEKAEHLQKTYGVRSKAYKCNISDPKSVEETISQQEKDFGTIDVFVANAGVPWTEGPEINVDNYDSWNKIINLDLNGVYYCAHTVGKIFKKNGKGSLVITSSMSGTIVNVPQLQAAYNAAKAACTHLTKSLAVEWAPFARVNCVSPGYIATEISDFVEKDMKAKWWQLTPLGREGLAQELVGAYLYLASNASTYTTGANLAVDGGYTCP

For data set [6], the target named is T3, SCR3, (S)-carbonyl reductase of Candida parapsilosis, as in the hetero-oligomer SCR/SCR3 (Candida parapsilosis, UniProt G8BHG5 1-279).
T3 sequence: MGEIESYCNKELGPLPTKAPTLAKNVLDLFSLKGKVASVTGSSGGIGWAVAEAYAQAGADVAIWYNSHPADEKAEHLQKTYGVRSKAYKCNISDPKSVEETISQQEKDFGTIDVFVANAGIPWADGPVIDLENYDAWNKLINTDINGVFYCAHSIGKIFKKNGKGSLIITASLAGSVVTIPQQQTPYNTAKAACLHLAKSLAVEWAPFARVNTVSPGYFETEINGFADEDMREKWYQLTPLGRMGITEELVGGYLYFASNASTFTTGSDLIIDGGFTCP
In words: method not described for this pair.

For data set [7], the target named is T4, SCR3, (S)-carbonyl reductase of Candida parapsilosis, as in the hetero-oligomer SCR/SCR3.
T4 chain: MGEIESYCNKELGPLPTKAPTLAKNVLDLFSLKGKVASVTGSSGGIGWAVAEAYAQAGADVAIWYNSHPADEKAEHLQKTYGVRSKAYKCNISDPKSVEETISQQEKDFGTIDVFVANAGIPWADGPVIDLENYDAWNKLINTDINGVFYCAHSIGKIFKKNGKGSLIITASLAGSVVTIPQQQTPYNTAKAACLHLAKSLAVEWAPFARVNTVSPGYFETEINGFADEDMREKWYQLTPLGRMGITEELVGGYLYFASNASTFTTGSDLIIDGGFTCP

“Also recorded” adds a separate entry of the source.

B1: SCR3: homo-oligomer (S)-carbonyl reductase from Candida parapsilosis, amino acid sequence SEQ ID NO: 3 (protein, listed as Candida parapsilosis)
chain: MGEIESYCNKELGPLPTKAPTLAKNVLDLFSLKGKVASVTGSSGGIGWAVAEAYAQAGADVAIWYNSHPADEKAEHLQKTYGVRSKAYKCNISDPKSVEETISQQEKDFGTIDVFVANAGIPWADGPVIDLENYDAWNKLINTDINGVFYCAHSIGKIFKKNGKGSLIITASLAGSVVTIPQQQTPYNTAKAACLHLAKSLAVEWAPFARVNTVSPGYFETEINGFADEDMREKWYQLTPLGRMGITEELVGGYLYFASNASTFTTGSDLIIDGGFTCP
Regarding B1, the “relative enzyme activity (specific activity) towards 2,4-dichlorobenzophenone” value in data set [1] was “no specific activity is observed; also recorded: no enzyme activities were detected”. Also, the “relative enzyme activity (specific activity) towards 2-acetonaphthone” value in data set [2] is “no specific activity is observed; also recorded: no enzyme activities were detected”. Moreover, the “relative enzyme activity (specific activity) towards Keto Easter M” value in data set [3] was “no specific activity is observed; also recorded: no enzyme activities were detected”.

B2: Strep-SCR2, (S)-carbonyl reductase SCR2 of Candida parapsilosis with N-terminal Strep-tag, expressed from pET21-Strep-SCR2 (protein)
chain: MGEIESYCNKELGPLPTKAPTLSKNVLDLFSLKGKVASVTGSSGGIGWAVAEAYAQAGADVAIWYNSHPADEKAEHLQKTYGVRSKAYKCNISDPKSVEETISQQEKDFGTIDVFVANAGVPWTEGPEINVDNYDSWNKIINLDLNGVYYCAHTVGKIFKKNGKGSLVITSSMSGTIVNVPQLQAAYNAAKAACTHLTKSLAVEWAPFARVNCVSPGYIATEISDFVEKDMKAKWWQLTPLGREGLAQELVGAYLYLASNASTYTTGANLAVDGGYTCP
On to B2, for which the “relative enzyme activity (specific activity) towards 2,4-dichlorobenzophenone” value in data set [1] is “no specific activity is observed; also recorded: no enzyme activities were detected”. For the same molecule, the “relative enzyme activity (specific activity) towards 2-acetonaphthone” value in data set [2] is “no specific activity is observed; also recorded: no enzyme activities were detected”. Besides, in data set [3], the “relative enzyme activity (specific activity) towards Keto Easter M” value was “no specific activity is observed; also recorded: no enzyme activities were detected”. Also, in data set [4], the “relative enzyme activity towards 2,4-dichlorobenzophenone” value is on record as 4.42 U/mg and the “relative enzyme activity towards [(E)-2-[3-[3-[2-(7-chloro-2-quinolinyl)ethenyl]phenyl]-3-oxopropyl]benzoic acid methyl ester (Keto Easter M)” value amounted to 1.21 U/mg.

B3: Strep-SCR, (S)-carbonyl reductase SCR of Candida parapsilosis with N-terminal Strep-tag, expressed from pET21-Strep-SCR (protein)
chain: MGEIESYCNKELGPLPTKAPTLSKNVLDLFSLKGKVASVTGSSGGIGWAVAEAYAQAGADVAIWYNSHPADEKAEHLQKTYGVHSKAYKCNISDPKSVEETISQQEKDFGTIDVFVANAGVTWTQGPEIDVDNYDSWNKIISVDLNGVYYCSHNIGKIFKKNGKGSLIITSSISGKIVNIPQLQAPYNTAKAACTHLAKSLAIEWAPFARVNTISPGYIDTDITDFASKDMKAKWWQLTPLGREGLTQELVGGYLYLASNASTFTTGSDVVIDGGYTCP
As for B3, in data set [5], the “relative enzyme activity towards 2,4-dichlorobenzophenone” value was found to be 4.55 U/mg, the “relative enzyme activity towards 2-acetonaphthone” value is on record as 2.43 U/mg and the “relative enzyme activity towards [(E)-2-[3-[3-[2-(7-chloro-2-quinolinyl)ethenyl]phenyl]-3-oxopropyl]benzoic acid methyl ester (Keto Easter M)” value came to 0.86 U/mg.

B4: SCR: homo-oligomer (S)-carbonyl reductase from Candida parapsilosis, amino acid sequence SEQ ID NO: 1 (protein, listed as Candida parapsilosis)
chain: MGEIESYCNKELGPLPTKAPTLSKNVLDLFSLKGKVASVTGSSGGIGWAVAEAYAQAGADVAIWYNSHPADEKAEHLQKTYGVHSKAYKCNISDPKSVEETISQQEKDFGTIDVFVANAGVTWTQGPEIDVDNYDSWNKIISVDLNGVYYCSHNIGKIFKKNGKGSLIITSSISGKIVNIPQLQAPYNTAKAACTHLAKSLAIEWAPFARVNTISPGYIDTDITDFASKDMKAKWWQLTPLGREGLTQELVGGYLYLASNASTFTTGSDVVIDGGYTCP
With B4, the “relative enzyme activity (specific activity) towards 2,4-dichlorobenzophenone” value in data set [1] is on record as “no specific activity is observed; also recorded: no enzyme activities were detected”. The “relative enzyme activity (specific activity) towards 2-acetonaphthone” value in data set [2] is given as “no specific activity is observed; also recorded: no enzyme activities were detected”. The “relative enzyme activity (specific activity) towards Keto Easter M” value in data set [3] is given as “no specific activity is observed; also recorded: no enzyme activities were detected”.

B5: SCR, (S)-carbonyl reductase of Candida parapsilosis, as in the hetero-oligomer SCR/SCR3 (enzyme)
chain: MGEIESYCNKELGPLPTKAPTLSKNVLDLFSLKGKVASVTGSSGGIGWAVAEAYAQAGADVAIWYNSHPADEKAEHLQKTYGVHSKAYKCNISDPKSVEETISQQEKDFGTIDVFVANAGVTWTQGPEIDVDNYDSWNKIISVDLNGVYYCSHNIGKIFKKNGKGSLIITSSISGKIVNIPQLQAPYNTAKAACTHLAKSLAIEWAPFARVNTISPGYIDTDITDFASKDMKAKWWQLTPLGREGLTQELVGGYLYLASNASTFTTGSDVVIDGGYTCP
As for B5, the binding result in data set [6] is listed as “binds”. Moreover, the “activities to polyphenyl ketones” value in data set [7] is “also showed some activities to polyphenyl ketones”.
